In one series the test system is DYT-TOR1A MEF EVs. Briefly: Quantitative LC-MS/MS proteomics of EVs from drug-treated DYT-TOR1A MEF cultures (ritonavir, salubrinal). The following applies: EV protein abundance; for RTV Corrective Direction: DYT + RTV (ritonavir) vs DYT, direction compared with DYT/WT; for DYT + RTV/DYT Cohen's d: ritonavir (RTV)-treated DYT vs DYT. Set-up: key to RTV Corrective Direction / RTV Corrective Direction, Grwd1 / RTV Corrective Direction, Srrm2 / RTV Corrective Direction, Rbm17 / RTV Corrective Direction, Dcaf8 / RTV Corrective Direction, Edil3 / RTV Corrective Direction, Timp3 / RTV Corrective Direction, Heatr3 / RTV Corrective Direction, Brd4 / RTV Corrective Direction, P3h4 / RTV Corrective Direction, Pacsin3 / RTV Corrective Direction, Naa50 / RTV Corrective Direction, Lpar6 / RTV Corrective Direction, Ndrg1 / RTV Corrective Direction, Kntc1 / RTV Corrective Direction, Cdk11b / RTV Corrective Direction, Sumo1 / RTV Corrective Direction, Lsm4 / RTV Corrective Direction, Hmga2 / RTV Corrective Direction, Cstf1 / RTV Corrective Direction, Tes / RTV Corrective Direction, Sbno1 / RTV Corrective Direction, Unc119b / RTV Corrective Direction, Cfdp1 / RTV Corrective Direction, Sec61b: YES = protein abundance effect opposite to DYT/WT. It is filed as cell-based, mouse.

For the next series, the system named is WT MEF EVs. Briefly: Quantitative LC-MS/MS proteomics of EVs from ISRIB-treated WT MEF cultures. It is filed as cell-based, mouse. Set-up: key to ISRIB and DYT Parallel Direction / ISRIB and DYT Parallel Direction, Ctdsp1 / ISRIB and DYT Parallel Direction, Pcdh19 / ISRIB and DYT Parallel Direction, Tspan7 / ISRIB and DYT Parallel Direction, Myo1e / ISRIB and DYT Parallel Direction, Plpp3 / ISRIB and DYT Parallel Direction, Sh3bp4 / ISRIB and DYT Parallel Direction, Dnajc7 / ISRIB and DYT Parallel Direction, Drg1 / ISRIB and DYT Parallel Direction, Maea: YES = protein abundance effect similar to DYT/WT. To be noted: EV protein abundance; for WT + ISRIB/WT Cohen's d: ISRIB-treated WT vs WT; for ISRIB and DYT Parallel Direction: WT + ISRIB vs WT, direction compared with DYT/WT.

The subject of series [1] is DYT1 patient plasma derived EVs. The series can be described thus: Plasma-derived EV proteomics (ExoQuick ULTRA, DIA LC/MS/MS), DYT1 vs Healthy Controls. Set-up: species or system human. The following applies: Hs. Plasma EVs (DYT1/WT); significance of genotype difference. On the procedure:
Data was obtained for extracellular vesicles using previously acquired samples. The ExoQuick® ULTRA EV Isolation System was used to fractionate and enrich EVs from plasma. Isolated plasma EV samples were then submitted to proteomic analysis by the Duke Proteomics and Metabolomics Core Facility (DPMCF). At the DPMCF, quantitative (LC/MS/MS) was performed on 500 ng of each sample, using an EvoSep One UPLC system coupled to a Thermo Orbitrap Astral high-resolution accurate mass tandem mass spectrometer (Thermo). Briefly, the sample was eluted directly from an Evotip which was subjected to a low organic wash and then subjected to an analytical separation using a 1.7 μm EvoSep 150 um ID×15 cm endurance (EveoSep) column running an SPD30 gradient from approximately 5 to 30% acetonitrile with 0.1% formic acid with a column temperature of 50 C. Data collection on the Orbitrap Astral mass spectrometer was performed in a data-independent acquisition (DIA) mode of acquisition with a r=240,000 (@m/z 200) full MS scan from m/z 380-980 with a target AGC value of 4e5 ions. Fixed DIA, windows of 4 m/z from m/z 380 to 980 DIA MS/MS scans were acquired in the Astral with a target AGC value of 5e4 and a max fill time of 6 ms. HCD collision energy setting of 27% was used for all MS2 scans.

B1: Dhx15 (protein, UniProt O35286 1-795, looked up)
ATP-dependent RNA helicase …: MSKRHRLDLGEDYPSGKKRAGTDGKDRERDRDREDRSKDRDRERDRGDREREREKEKEKELRASTNAMLISAGLPPLKASHSAHSTHSAHSTHSTHSAHSTHTGHTGHTSLPQCINPFTNLPHTPRYYDILKKRLQLPVWEYKDRFTDILVRHQSFVLVGETGSGKTTQIPQWCVEYMRSLPGPKRGVACTQPRRVAAMSVAQRVADEMDVMLGQEVGYSIRFEDCSSAKTILKYMTDGMLLREAMNDPLLERYGVIILDEAHERTLATDILMGVLKEVVRQRSDLKVIVMSATLDAGKFQIYFDNCPLLTIPGRTHPVEIFYTPEPERDYLEAAIRTVIQIHMCEEEEGDLLLFLTGQEEIDEACKRIKREVDDLGPEVGDIKIIPLYSTLPPQQQQRIFEPPPPKKQNGAIGRKVVVSTNIAETSLTIDGVVFVIDPGFAKQKVYNPRIRVESLLVTAISKASAQQRAGRAGRTRPGKCFRLYTEKAYKTEMQDNTYPEILRSNLGSVVLQLKKLGIDDLVHFDFMDPPAPETLMRALELLNYLAALNDDGDLTELGSMMAEFPLDPQLAKMVIASCDYNCSNEVLSITAMLSVPQCFVRPTEAKKAADEAKMRFAHIDGDHLTLLNVYHAFKQNHESVQWCYDNFINYRSLMSADNVRQQLSRIMDRFNLPRRSTDFTSRDYYINIRKALVTGYFMQVAHLERTGHYLTVKDNQVVQLHPSTVLDHKPEWVLYNEFVLTTKNYIRTCTDIKPEWLVKIAPQYYDMSNFPQCEAKRQLDRIIAKLQSKEYSQY
B1: in the series with DYT-TOR1A MEF EVs, the “RTV Corrective Direction” value is listed as “YES” and the “DYT + RTV/DYT Cohen's d” value stood at 4.59. Further, in the series with WT MEF EVs, the “WT + ISRIB/WT Cohen's d” value is reported as −1.19; the “ISRIB and DYT Parallel Direction” value is on record as “YES”.

B2: Ap3d1 (protein, UniProt O54774 2-1199, looked up)
AP-3 complex subunit delta-1: ALKMVKGSIDRMFDKNLQDLVRGIRNHKEDEAKYISQCIDEIKQELKQDNIAVKANAVCKLTYLQMLGYDISWAAFNIIEVMSASKFTFKRVGYLAASQCFHEGTDVIMLTTNQIRKDLSSPSQYDTGVALTGLSCFVTPDLARDLANDIMTLMSHTKPYIRKKAVLIMYKVFLKYPESLRPAFPRLKEKLEDPDPGVQSAAVNVICELARRNPKNYLSLAPLFFKLMTSSTNNWVLIKIIKLFGALTPLEPRLGKKLIEPLTNLIHSTSAMSLLYECVNTVIAVLISLSSGMPNHSASIQLCVQKLRILIEDSDQNLKYLGLLAMSKILKTHPKSVQSHKDLILQCLDDKDESIRLRALDLLYGMVSKKNLMEIVKKLMTHVDKAEGTTYRDELLTKIIDICSQSNYQHITNFEWYISILVELTRLEGTRHGHLIAAQMLDVAIRVKAIRKFAVSQMSSLLDSAHLVASSTQRNGICEVLYAAAWICGEFSEHLQGPQQTLEAMLRPKVTTLPGHIQAVYVQNVVKLYASILQQKEQAADTEAAQEVTQLLVERLPQFVQSADLEVQERASCILQLVKHVQKLQAKGVPVAEEVSALFAGELNPVAPKAQKKVPVPEGLDLDAWINEPPSDSESEDEKPKAIFHEEEPRHTRRRQPEEDEEELARRREARKQEQANNPFYIKSSPSPQKRYQDAPGVEHIPVVQIDLSVPLKVPGMPMSDQYVKLEEQRRHRQRLEKDKKRKKKEKGKRRHSSLPTESDEDIAPAQRVDIITEEMPENALPSDEDDKDPNDPYRALDIDLDKPLADSEKLPVQKHRNAEAVKSPEKEGVLGVEKKSKKPKKKEKKTKEREREKKDKKGEDLDFWLSTTPPPAAAPIPAPSTEELAASTITSPKDECEVLKGEEEDHVDHDQERKSSRHKKKKHRKEKEKEERPRDKKKAKKKQVAPLENGAAAEEEEEPIPPMSSYCLLAESPYIKVTYDIQASLQKDSQVTVSIILENQSSSFLKNMELNVLDSLNTKMTRPEGSSVHDGVPVPFQLPPGVSNEAQFVFTIQSIVMAQKLKGTLSFIAKDDEGATHEKLDFRLHFSCSSYLITTPCYSDAFAKLLESGDLSMNSIKVDGISMSFQNLLAKICFYHHFSVVERVDSCASMYSRSIQGHHVCLLVKKGESSVSVDGKCSDATLLSSLLEEMKTTLAQC
As for B2, in the series with DYT-TOR1A MEF EVs, the “RTV Corrective Direction” value is on record as “YES” and the “DYT + RTV/DYT Cohen's d” value worked out at 3.27. In the series with WT MEF EVs, the “WT + ISRIB/WT Cohen's d” value is −0.19; the “ISRIB and DYT Parallel Direction” value is recorded as “YES”.

B3: AP1B1 (protein, UniProt Q10567 1-949, looked up)
AP-1 complex subunit beta-1: MTDSKYFTTTKKGEIFELKAELNSDKKEKKKEAVKKVIASMTVGKDVSALFPDVVNCMQTDNLELKKLVYLYLMNYAKSQPDMAIMAVNTFVKDCEDPNPLIRALAVRTMGCIRVDKITEYLCEPLRKCLKDEDPYVRKTAAVCVAKLHDINAQLVEDQGFLDTLKDLISDSNPMVVANAVAALSEIAESHPSSNLLDLNPQSINKLLTALNECTEWGQIFILDCLANYMPKDDREAQSICERVTPRLSHANSAVVLSAVKVLMKFMEMLSKDLDYYGTLLKKLAPPLVTLLSAEPELQYVALRNINLIVQKRPEILKHEMKVFFVKYNDPIYVKLEKLDIMIRLASQANIAQVLAELKEYATEVDVDFVRKAVRAIGRCAIKVEQSAERCVSTLLDLIQTKVNYVVQEAIVVIKDIFRKYPNKYESVIATLCENLDSLDEPEARAAMIWIVGEYAERIDNADELLESFLEGFHDESTQVQLQLLTAIVKLFLKKPTETQELVQQVLSLATQDSDNPDLRDRGYIYWRLLSTDPVAAKEVVLAEKPLISEETDLIEPTLLDELICYIGTLASVYHKPPSAFVEGGRGVVHKSLPPRTASSESAESPETAPTGAPPGEQPDVIPAQGDLLGDLLNLDLGPPVSGPPLATSSVQMGAVDLLGGGLDSLMGDEPEGIGGTNFVAPPTAAVPANLGAPIGSGLSDLFDLTSGVGTLSGSYVAPKAVWLPAMKAKGLEISGTFTRQVGSISMDLQLTNKALQVMTDFAIQFNRNSFGLAPAAPLQVHAPLSPNQTVEISLPLSTVGSVMKMEPLNNLQVAVKNNIDVFYFSTLYPLHILFVEDGKMDRQMFLATWKDIPNENEAQFQIRDCPLNAEAASSKLQSSNIFTVAKRNVEGQDMLYQSLKLTNGIWVLAELRIQPGNPSCTDLELSLKCRAPEVSQHVYQAYETILKN
As to B3, the “-LogP” value in series [1] was found to be 2.413.

B4: ZYX (protein, UniProt Q15942 2-572, looked up)
Zyxin: AAPRPSPAISVSVSAPAFYAPQKKFGPVVAPKPKVNPFRPGDSEPPPAPGAQRAQMGRVGEIPPPPPEDFPLPPPPLAGDGDDAEGALGGAFPPPPPPIEESFPPAPLEEEIFPSPPPPPEEEGGPEAPIPPPPQPREKVSSIDLEIDSLSSLLDDMTKNDPFKARVSSGYVPPPVATPFSSKSSTKPAAGGTAPLPPWKSPSSSQPLPQVPAPAQSQTQFHVQPQPQPKPQVQLHVQSQTQPVSLANTQPRGPPASSPAPAPKFSPVTPKFTPVASKFSPGAPGGSGSQPNQKLGHPEALSAGTGSPQPPSFTYAQQREKPRVQEKQHPVPPPAQNQNQVRSPGAPGPLTLKEVEELEQLTQQLMQDMEHPQRQNVAVNELCGRCHQPLARAQPAVRALGQLFHIACFTCHQCAQQLQGQQFYSLEGAPYCEGCYTDTLEKCNTCGEPITDRMLRATGKAYHPHCFTCVVCARPLEGTSFIVDQANRPHCVPDYHKQYAPRCSVCSEPIMPEPGRDETVRVVALDKNFHMKCYKCEDCGKPLSIEADDNGCFPLDGHVLCRKCHTARAQT
As to B4, in series [1], the “-LogP” value amounted to 2.225.

B5: Mvd (protein, UniProt P53602 2-400, looked up)
Diphosphomevalonate …: ASEKPLAAVTCTAPVNIAVIKYWGKRDEELVLPINSSLSVTLHQDQLKTTTTAVISKDFTEDRIWLNGREEDVGQPRLQACLREIRCLARKRRNSRDGDPLPSSLSCKVHVASVNNFPTAAGLASSAAGYACLAYTLARVYGVESDLSEVARRGSGSACRSLYGGFVEWQMGEQADGKDSIARQVAPESHWPELRVLILVVSAEKKLTGSTVGMRASVETSPLLRFRAESVVPARMAEMARCIRERDFPSFAQLTMKDSNQFHATCLDTFPPISYLNAISWRIIHLVHRFNAHHGDTKVAYTFDAGPNAVIFTLDDTVAEFVAAVWHGFPPGSNGDTFLKGLQVRPAPLSAELQAALAMEPTPGGVKYIIVTQVGPGPQILDDPCAHLLGPDGLPKPAA
As for B5, in the series on DYT-TOR1A MEF EVs, the “RTV Corrective Direction” value is “YES” and the “DYT + RTV/DYT Cohen's d” value was 4.38. In addition, in the series on WT MEF EVs, the “WT + ISRIB/WT Cohen's d” value is reported as −0.34; the “ISRIB and DYT Parallel Direction” value is reported as “YES”.

B6: Cd276 (protein, UniProt Q8VE98 29-316, looked up)
CD276 antigen: VEVQVSEDPVVALVDTDATLRCSFSPEPGFSLAQLNLIWQLTDTKQLVHSFTEGRDQGSAYSNRTALFPDLLVQGNASLRLQRVRVTDEGSYTCFVSIQDFDSAAVSLQVAAPYSKPSMTLEPNKDLRPGNMVTITCSSYQGYPEAEVFWKDGQGVPLTGNVTTSQMANERGLFDVHSVLRVVLGANGTYSCLVRNPVLQQDAHGSVTITGQPLTFPPEALWVTVGLSVCLVVLLVALAFVCWRKIKQSCEEENAGAEDQDGDGEGSKTALRPLKPSENKEDDGQEIA
For the molecule B6, in the series on DYT-TOR1A MEF EVs, the “RTV Corrective Direction” value is on record as “YES” and the “DYT + RTV/DYT Cohen's d” value came out at 1.75. Moreover, in the series with WT MEF EVs, the “WT + ISRIB/WT Cohen's d” value is given as −2.07; the “ISRIB and DYT Parallel Direction” value is “YES”.
